{"source": "patent US20090175866A1", "about": "“TREATMENT OF B-CELL MALIGNANCIES” (priority 2004, published 2009)", "molecules": {"B1": {"name": "PRO-001: human anti-FGFR3 Fab from HuCAL library; VH-CDR3 SEQ ID NO:1, VL-CDR3 SEQ ID NO:10; VH SEQ ID NO:19, VL SEQ ID NO:28 (antibody, V domains shown)", "VH": "QVQLQQSGPGLVKPSQTLSLTCAISGDSVSSNSAAWNWIRQSPGRGLEWLGRTYYRSKWYNDYAVSVKSRITINPDTSKNQFSLQLNSVTPEDTAVYYCARSYYPDFDYWGQGTLVTVSS", "VL": "DIELTQPPSVSVAPGQTARISCSGDALGDKYASWYQQKPGQAPVLVIYDDSDRPSGIPERFSGSNSGNTATLTISGTQAEDEADYYCQSYDGPDLWVFGGGTKLTVLGQ"}}, "key": {"[1]": {"test_system": "ERK1/2 phosphorylation", "assay": "FGF-induced ERK phosphorylation in primary myeloma cells (flow cytometry)", "assay_type": "cell-based, human", "details": "5 μg/ml, 2 h pre-incubation", "protocol": "FIGS. 6 A-B are flow cytometry charts of human primary myeloma cells treated with anti-FGFR antibody PRO-001. A: Freshly isolated BMSCs were stained with PRO-001 (black line) or control antibody (grey line) and then stained with PE-conjugated anti-human secondary antibody. B: Primary myeloma cells were incubated in the absence (filled) or presence of FGF (light line) or pre-incubated with 5 μg/ml PRO-001 (dark line) for 2 h and then stimulated with FGF. ERK1/2 phosphorylation was assessed by flow cytometry analysis.\nDetermination of ERK1/2 phosphorylation by flow cytometry has been described previously (Chow S, et al., Cytometry 2001; 46:72-78). Cells were serum-starved overnight and then stimulated with 30 ng/ml of aFGF and 10 μg/ml heparin for 10 minutes at 37° C. The cells were immediately fixed by adding 10% formaldehyde directly into the culture medium to obtain a final concentration of 2%. Cells were incubated in fixative for 10 min at 37° C. then on ice for an additional 2 minutes. The cells were permeabilized by adding ice-cold methanol (to a final concentration of 90%) while vortexing and incubated on ice for 30 minutes. […] Flow cytometry was performed on a FACSCaliber® flow cytometer (BD Biosciences, San Jose, Calif.) and analyzed using Cellquest® software (Becton Dickinson). […]"}, "[2]": {"target": "T1, WT FGFR3 (Homo sapiens, UniProt P22607)", "T1 construct": "expressed in transfected cells; host or cells: B9 cells", "T1 sequence (P22607 23-806)": "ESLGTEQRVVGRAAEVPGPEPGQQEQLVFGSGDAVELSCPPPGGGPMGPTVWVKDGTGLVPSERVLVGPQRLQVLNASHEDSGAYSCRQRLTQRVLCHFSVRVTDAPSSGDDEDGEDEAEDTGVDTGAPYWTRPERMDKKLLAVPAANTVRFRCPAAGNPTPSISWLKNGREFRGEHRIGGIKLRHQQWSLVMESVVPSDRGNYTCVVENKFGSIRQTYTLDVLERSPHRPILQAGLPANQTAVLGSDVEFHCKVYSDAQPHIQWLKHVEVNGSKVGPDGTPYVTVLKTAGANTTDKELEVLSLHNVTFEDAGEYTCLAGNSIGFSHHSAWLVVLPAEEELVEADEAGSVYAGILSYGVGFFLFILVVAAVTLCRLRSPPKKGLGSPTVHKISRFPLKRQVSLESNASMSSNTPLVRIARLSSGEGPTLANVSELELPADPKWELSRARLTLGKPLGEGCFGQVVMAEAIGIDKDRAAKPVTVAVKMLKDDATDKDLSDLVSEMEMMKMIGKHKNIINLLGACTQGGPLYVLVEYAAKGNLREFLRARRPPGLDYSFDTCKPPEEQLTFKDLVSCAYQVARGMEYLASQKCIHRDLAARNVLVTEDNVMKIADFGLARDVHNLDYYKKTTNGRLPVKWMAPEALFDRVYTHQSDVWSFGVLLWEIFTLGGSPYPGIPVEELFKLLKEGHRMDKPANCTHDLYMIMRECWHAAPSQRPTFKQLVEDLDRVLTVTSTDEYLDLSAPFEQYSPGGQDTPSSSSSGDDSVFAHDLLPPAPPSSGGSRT", "assay": "Flow cytometry binding of PRO-001 Fab to B9-FGFR3^WT cells, with or without FGF", "description": "FIG. 1A is a flow cytometry chart showing B9-FGFR WT (wild type) cells fluorescently labeled with PRO 001 followed by a PE-conjugated anti-human secondary antibody. The filled histogram indicates parental B9 cells (lacking FGFR3 expression); the dotted light line, B9-FGFR WT without aFGF; the solid dark line, B9-WT in the presence of aFGF. The Y axis represents counts indicating the amount of cells. The X axis represents fluorescence intensity.\nCells (5×10^5) were washed in cold phosphate-buffered saline (PBS) and then incubated for 30 minutes with one of the following: PRO-001 Fab or a human Fab control antibody, rabbit anti-FGFR3 (100) or rabbit preimmune serum in PBS. The cells were then stained with PE-conjugated goat antihuman F(ab′)2 secondary antibody or goat anti-rabbit IgG-PE for 30 minutes on ice. Flow cytometry was performed on a FACSCaliber flow cytometer (BD Biosciences, San Jose, Calif.) and analyzed using Cellquest software (Becton Dickinson). To assess the ability of FGF ligand to compete for binding, cells were incubated in the presence or absence of 30 ng/ml FGF and 5 μg/ml heparin for 30 minutes and then stained with PRO-001 Fab as describe above.\nThe human anti-FGFR3 Fab PRO-001 was isolated from the Hu-CAL®-Fab-1 human combinatorial library using a differential whole cell panning approach (Rauchenberger R, et al. J Biol. Chem. 2003; 278:38194-205). […]"}, "[3]": {"test_system": "FDCP-FGFR3^S249C cells", "assay": "FDCP-FGFR3^S249C xenograft tumor model in nude mice", "assay_type": "in vivo", "details": "PRO-001 Fab I.P.", "protocol": "FIG. 8B is a graph showing the effect of PRO-001 on an FGFR3-driven xenograft tumor model. Nude mice (3 in each group), were injected S.C. at 2 locations, one on each flank (a—right flank, b—left flank), with 2×10^6 FDCP-FGFR3^S249C cells each. A week later, mice were randomized to receive PRO-001 by I.P. injection according to the schedule described in Table I or PBS as control. Tumor volume was estimated from measurements in 3 dimensions at 22 or 29 days post cell injection.\nFDCP-FGFP3^S249C cells were washed 3 times in PBS then resuspended at 2×10^6 cells/200 μl PBS. The cells were injected subcutaneously (S.C.) to CD1 nude adult females (Harlan, Laboratories, Israel) with a 25 G needle at one or both mouse flanks. Treatment was initiated one week post cell inoculation at which time mice were randomized to receive PRO-001 or an equal volume of PBS alone. Dosing was preformed twice weekly by intraperitoneal (I.P.) injection for 3 weeks. Mice were followed every 2-4 days and developing tumors were measured at 3 dimensions using a caliper. Tumor volume was estimated by multiplying these 3 values.\nNude mice were injected subcutaneously at 2 locations; one on each flank, with 2×10^6 FDCP-FGFR3^S249C cells each. One week post cell injection, mice were treated with PRO-001 Fab. […]"}, "[4]": {"target": "FGFR3 (Homo sapiens, UniProt P22607)", "sequence (P22607 23-806)": "as above", "assay": "Affinity and Koff to FGFR3 measured by BIAcore", "assay_type": "binding"}}, "data": [{"molecule": "B1", "values": [{"measurement": "FGF-induced ERK phosphorylation in primary myeloma cells", "setting": "[1]", "result": "blocked FGF-induced ERK phosphorylation"}, {"measurement": "Binding to B9-FGFR3^WT cells on addition of FGF", "setting": "[2]; 30 ng/ml FGF and 5 μg/ml heparin", "result": "can be reduced by addition of FGF"}, {"measurement": "Binding to WT FGFR3 (FACS)", "setting": "[2]; PRO-001 Fab, B9-FGFR3^WT cells", "result": "binds to WT FGFR3"}, {"measurement": "Tumor growth relative to control mice", "setting": "[3]; four weeks post cell injection, 400-275 μg per dose", "result": 10, "unit": "%"}, {"measurement": "Toxicities and weight loss over the treatment period", "setting": "[3]; nude mice", "result": "No major toxicities or significant weight loss"}, {"measurement": "Kd", "setting": "[4]", "result": 1.5, "unit": "nM"}]}]}
